Among the data in paper PMC8590968 are percent reduction of lectin bound to MDCK cells values, retold here.

The target of experiment [1] is Maackia amurensis lectin II (Maackia amurensis). Kind of experiment: immunostaining of cells or tissue.
Experiment [2] addresses Sambucus nigra lectin (Sambucus nigra). In words: immunostaining of cells or tissue.

Chain of Sambucus nigra lectin (Sambucus nigra) (Q41358 29-289 limits assumed, chain 1 of 2): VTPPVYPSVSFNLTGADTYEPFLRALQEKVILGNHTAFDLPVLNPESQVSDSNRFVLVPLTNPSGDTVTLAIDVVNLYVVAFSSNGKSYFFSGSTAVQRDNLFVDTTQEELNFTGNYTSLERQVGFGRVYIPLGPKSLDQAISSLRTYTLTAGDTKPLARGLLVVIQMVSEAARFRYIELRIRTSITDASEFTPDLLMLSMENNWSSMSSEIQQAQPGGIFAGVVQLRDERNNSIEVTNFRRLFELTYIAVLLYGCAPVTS
Chain of Sambucus nigra lectin (Sambucus nigra) (Q41358 309-570 limits assumed, chain 2 of 2): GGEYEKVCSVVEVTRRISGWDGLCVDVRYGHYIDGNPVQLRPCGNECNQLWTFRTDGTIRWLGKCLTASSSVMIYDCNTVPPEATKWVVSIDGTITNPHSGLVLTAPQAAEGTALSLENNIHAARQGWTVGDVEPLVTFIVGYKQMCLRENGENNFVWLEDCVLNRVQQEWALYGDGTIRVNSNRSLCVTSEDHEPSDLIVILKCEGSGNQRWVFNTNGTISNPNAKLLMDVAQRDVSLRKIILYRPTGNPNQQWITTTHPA

Substance “native bovine lactoferrin (natural protein)” gave a percent reduction of lectin bound to MDCK cells in experiment [1] of 40%. As for “desialylated bovine lactoferrin (natural protein)”, in experiment [2], the percent reduction of lectin bound to MDCK cells was 60%.
